Source: patent publication US20250295571A1, “COMPOSITIONS AND METHODS FOR STIMULATION OF HAIR GROWTH” (THE REGENTS OF THE UNIVERSITY OF CALIFORNIA, priority 2022, published 2025)

Tests used:
[1] = tested on: anagen HFs; assay: Intradermal microinjection of protein in mice starting at P48, induced anagen HFs counted on day 14; type: in vivo, mouse; conditions: intradermally microinjected for four days starting at P48; compared on day 14 to BSA; n=7
Excerpt: (§1) FIGS. 2A-2I. SCUBE3 induces hair growth. (2A) Expression of pan-isoform Scube3 mRNA in dorsal mouse skin at indicated postnatal time points. (2B) Time course analysis of dorsal hair growth patterns in representative control (top) and Scube3^−/− mice (bottom) between days P24-30. Mice were shaved before each round of photography. (2C) Representative images of microinjection sites for BSA (top) and rhSCUBE3 (bottom). Affi-gel blue agarose beads are visible. Newly growing anagen HFs are pigmented. (2D) Quantification of induced anagen HFs in response to rhSCUBE3 on day 14. n=7; *** P<0.0002. (2E) Representative images of microinjection sites for BSA (left) and rhSCUBE3 (right) on 20-month-old mice. Affi-gel blue agarose beads are visible. Newly growing anagen HFs are pigmented. (2F) Quantification of induced anagen HFs in aged mice on day 14 after protein injection. n=9; * P<0.0001. (2G) Expression of K14, KI67 and SCUBE3 mRNA in human anagen occipital scalp HF. SCUBE3 mRNA is specifically and highly expressed in DP and adjacent dermal sheath cup. (2H) Representative images of microinjection sites for BSA and rhSCUBE3 in human occipital scalp HF-on-SCID mouse xenograft model. (2I) Scattered plot of human and mouse anagen HF quantification. Striped dots represent rhSCUBE3-injected samples and solid dots represent BSA-injected samples. Tissue sections were counterstained with DAPI in 2A, 2G. […]

[2] = tested on: anagen HFs; assay: Intradermal protein microinjection in aged mice over 20 months of age, induced anagen HFs on day 14; type: in vivo, mouse; conditions: day 14 after protein injection, n=9
Excerpt: as §1

[3] = tested on: grafted human occipital scalp HFs; assay: Human occipital scalp HF-on-SCID mouse xenograft model, grafted human HFs; type: in vivo; conditions: three daily doses on post-grafting day 30; counted on post-grafting day 50; compared to BSA (n=5), rhSCUBE3 n=6
Excerpt: as §1, with “SCUBE3 mRNA is specifically and highly expressed in DP and adjacent dermal sheath cup. (2H) Representative images of microinjection sites for BSA and rhSCUBE3 in human occipital scalp HF-on-SCID mouse xenograft model.” left out, “quantification.” for “quantification. Striped dots represent rhSCUBE3-injected samples and solid dots represent BSA-injected samples. Tissue sections were counterstained with DAPI in 2A, 2G.”
(§2) To start evaluating the translational potential of SCUBE3, first we examined its expression pattern in human anagen HFs from occipital scalp of volunteer donors, undergoing autologous hair transplantation procedures. […] Anagen phase human and adjacent mouse host HFs were then counted at each injection site on post-grafting day 50. […]

[4] = tested on: mouse host HFs; assay: Human occipital scalp HF-on-SCID mouse xenograft model, adjacent mouse host HFs; type: in vivo; conditions: three daily doses on post-grafting day 30; counted on post-grafting day 50; compared to BSA (n=5), rhSCUBE3 n=6
Excerpt: as §1, with “SCUBE3 mRNA is specifically and highly expressed in DP and adjacent dermal sheath cup. (2H) Representative images of microinjection sites for BSA and rhSCUBE3 in human occipital scalp HF-on-SCID mouse xenograft model.” left out, “quantification.” for “quantification. Striped dots represent rhSCUBE3-injected samples and solid dots represent BSA-injected samples. Tissue sections were counterstained with DAPI in 2A, 2G.”
as §2

B1: rhSCUBE3: recombinant human SCUBE3 (Signal Peptide, CUB Domain And EGF Like Domain Containing 3) protein (protein, listed as Homo sapiens)
chain: CGGELGEFTGYIESPNYPGNYPAGVECIWNINPPPKRKILIVVPEIFLPSEDECGDVLVMRKNSSPSSITTYETCQTYERPIAFTARSRKLWINFKTSEANSARGFQIPYVTYDEDYEQLVEDIVRDGRLYASENHQEILKDKKLIKAFFEVLAHPQNYFKYTEKHKEMLPKSFIKLLRSKVSSFLRPYK
new hair growth (induced anagen HFs), mean difference compared to BSA [1]: 18+/−3.44 | new hair growth at the injection sites (induced anagen HFs), mean difference vs BSA [2]: 31.78+/−2.40 | anagen entry of grafted human HFs [3]: accelerated anagen entry of grafted human HFs | new anagen of mouse host HFs [4]: stimulated new anagen of mouse host HFs
